Here are results for three molecules from PMC10727010 (Structure (London, England : 1993), 2023).

The test system of one assay is PCNA. The note with it: PIP or APIM mutated; local ultraviolet irradiation; ref [5]; cited from earlier work.
The target in assay [1] is uniformly 2H,13C,15N-labelled proliferating cell nuclear antigen (PCNA), used in NMR (human, UniProt P12004 1-259, uniformly 2H,13C,15N enriched). Briefly: NMR titration.
Sequence of uniformly 2H,13C,15N-labelled proliferating cell nuclear antigen (PCNA), used in NMR (P12004 1-259): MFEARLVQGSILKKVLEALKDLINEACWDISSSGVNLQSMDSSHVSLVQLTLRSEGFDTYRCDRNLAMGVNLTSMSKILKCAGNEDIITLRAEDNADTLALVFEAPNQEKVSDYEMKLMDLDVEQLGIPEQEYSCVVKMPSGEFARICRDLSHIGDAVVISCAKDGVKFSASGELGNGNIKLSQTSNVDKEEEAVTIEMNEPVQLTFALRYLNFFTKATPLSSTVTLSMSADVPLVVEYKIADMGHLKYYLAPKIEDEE

B1: F-box DNA helicase 1 (protein, UniProt Q8NFZ0 1-1043, looked up)
F-box DNA helicase 1: MRRFKRKHLTAIDCQHLARSHLAVTQPFGQRWTNRDPNHGLYPKPRTKRGSRGQGSQRCIPEFFLAGKQPCTNDMAKSNSVGQDSCQDSEGDMIFPAESSCALPQEGSAGPGSPGSAPPSRKRSWSSEEESNQATGTSRWDGVSKKAPRHHLSVPCTRPREARQEAEDSTSRLSAESGETDQDAGDVGPDPIPDSYYGLLGTLPCQEALSHICSLPSEVLRHVFAFLPVEDLYWNLSLVCHLWREIISDPLFIPWKKLYHRYLMNEEQAVSKVDGILSNCGIEKESDLCVLNLIRYTATTKCSPSVDPERVLWSLRDHPLLPEAEACVRQHLPDLYAAAGGVNIWALVAAVVLLSSSVNDIQRLLFCLRRPSSTVTMPDVTETLYCIAVLLYAMREKGINISNRIHYNIFYCLYLQENSCTQATKVKEEPSVWPGKKTIQLTHEQQLILNHKMEPLQVVKIMAFAGTGKTSTLVKYAEKWSQSRFLYVTFNKSIAKQAERVFPSNVICKTFHSMAYGHIGRKYQSKKKLNLFKLTPFMVNSVLAEGKGGFIRAKLVCKTLENFFASADEELTIDHVPIWCKNSQGQRVMVEQSEKLNGVLEASRLWDNMRKLGECTEEAHQMTHDGYLKLWQLSKPSLASFDAIFVDEAQDCTPAIMNIVLSQPCGKIFVGDPHQQIYTFRGAVNALFTVPHTHVFYLTQSFRFGVEIAYVGATILDVCKRVRKKTLVGGNHQSGIRGDAKGQVALLSRTNANVFDEAVRVTEGEFPSRIHLIGGIKSFGLDRIIDIWILLQPEEERRKQNLVIKDKFIRRWVHKEGFSGFKRYVTAAEDKELEAKIAVVEKYNIRIPELVQRIEKCHIEDLDFAEYILGTVHKAKGLEFDTVHVLDDFVKVPCARHNLPQLPHFRVESFSEDEWNLLYVAVTRAKKRLIMTKSLENILTLAGEYFLQAELTSNVLKTGVVRCCVGQCNNAIPVDTVLTMKKLPITYSNRKENKGGYLCHSCAEQRIGPLAFLTASPEQVRAMERTVENIVLPRHEALLFLVF
On to B1, for which, in the assay with PCNA, the “co-localization of PCNA and FBH1 on motif mutation” value was “reduced co-localization of PCNA and FBH1 when either PIP or APIM is mutated”.
For orientation: Kd means the constant that tells how readily two partners part at equilibrium. Higher therefore signals weaker binding. GSQRCIPEFFLAGK [FBH1PIP peptide (residues 55-68 of F-box DNA helicase 1)] returned a Kd in assay [1] of 7.8 µM.
Same read-out and setting: to KDKFIRRWVHK [FBH1APIM peptide (residues 805-815 of F-box DNA helicase 1)] belongs 276 µM.
